Reference: patent publication US20240132578A1

What was measured:
[1] = biological target: HIV-1 Env of isolate MGRM-Chronic-B-020 (HIV-1); test: cell-based or functional assay
[2] = biological target: HIV-1 Env of isolate SF162 (HIV-1) (UniProt P19550); test: cell-based or functional assay
[3] = biological target: HIV-1 Env of isolate SC422661.8 (HIV-1); test: cell-based or functional assay
[4] = biological target: HIV-1 Env of isolate TRO.11 (HIV-1); test: cell-based or functional assay
[5] = biological target: HIV-1 Env of isolate NL43 (HIV-1); test: cell-based or functional assay
[6] = biological target: HIV-1 Env of isolate MGRM-Chronic-B-023 (HIV-1); test: cell-based or functional assay
[7] = biological target: HIV-1 Env of pseudovirus MGRM-F1-006 (HIV-1); test: cell-based or functional assay
[8] = biological target: HIV-1 Env of isolate PVO.4 (HIV-1); test: cell-based or functional assay
[9] = biological target: HIV-1 Env of isolate 97ZA012 (HIV-1); test: cell-based or functional assay
[10] = biological target: HIV-1 Env of isolate MGRM-Chronic-B-018 (HIV-1); test: cell-based or functional assay
[11] = biological target: HIV-1 Env of isolate MGRM-Chronic-B-010 (HIV-1); test: cell-based or functional assay
[12] = biological target: HIV-1 Env of isolate 98IN022 (HIV-1); test: cell-based or functional assay
[13] = biological target: HIV-1 Env of isolate VLGCB3 (HIV-1); test: cell-based or functional assay
[14] = biological target: HIV-1 Env of isolate MGRM-Chronic-B-011 (HIV-1); test: cell-based or functional assay
[15] = biological target: HIV-1 Env of isolate MGRM-Chronic-B-012 (HIV-1); test: cell-based or functional assay
[16] = biological target: HIV-1 envelope glycoprotein (Env) of isolate MG RM-AG-005 (HIV-1); test: cell-based or functional assay
[17] = biological target: HIV-1 Env of isolate JRCSF (HIV-1) (UniProt P20871); test: cell-based or functional assay
[18] = biological target: HIV-1 Env of isolate THR0.18 (HIV-1); test: cell-based or functional assay
[19] = biological target: HIV-1 Env of isolate 93IN905 (HIV-1); test: cell-based or functional assay
[20] = biological target: HIV-1 Env of isolate TRJ04551.58 (HIV-1); test: cell-based or functional assay
[21] = biological target: HIV-1 Env of isolate MGRM-Chronic-B-017 (HIV-1); test: cell-based or functional assay
[22] = biological target: HIV-1 Env of isolate MGRM-Chronic-B-024 (HIV-1); test: cell-based or functional assay
[23] = biological target: HIV-1 Env of isolate 93MW959 (HIV-1); test: cell-based or functional assay
[24] = biological target: HIV-1 Env of isolate QH0692.42 (HIV-1); test: cell-based or functional assay
[25] = biological target: HIV-1 Env of isolate 92UG046 (pseudovirus) (HIV-1); test: cell-based or functional assay
[26] = biological target: HIV-1 Env of isolate 92UG001 (pseudovirus) (HIV-1); test: cell-based or functional assay
[27] = biological target: HIV-1 Env of isolate MGRM-AG-012 (subtype AG) (HIV-1); test: cell-based or functional assay
[28] = biological target: HIV-1 Env of isolate MGRM-A-003 (pseudovirus) (HIV-1); test: cell-based or functional assay
[29] = biological target: HIV-1 Env of isolate 93UG077 (pseudovirus) (HIV-1); test: cell-based or functional assay
[30] = biological target: HIV-1 Env of isolate 92WR021 (pseudovirus) (HIV-1); test: cell-based or functional assay
[31] = biological target: HIV-1 Env of isolate MGRM-D-001 (pseudovirus) (HIV-1); test: cell-based or functional assay
[32] = biological target: HIV-1 Env of isolate MGRM-Chronic-B-003 (HIV-1); test: cell-based or functional assay
[33] = biological target: HIV-1 Env of isolate 92WR020 (pseudovirus) (HIV-1); test: cell-based or functional assay
[34] = biological target: HIV-1 Env of isolate 92UG037 (pseudovirus) (HIV-1); test: cell-based or functional assay
[35] = biological target: HIV-1 Env of isolate 92WR024 (pseudovirus) (HIV-1); test: cell-based or functional assay
[36] = biological target: HIV-1 92RW020 Env (HIV-1); test: cell-based or functional assay
[37] = biological target: HIV-1 Env of isolate 92UG031 (pseudovirus) (HIV-1); test: cell-based or functional assay
[38] = biological target: HIV-1 Env of isolate 94UG103 (pseudovirus) (HIV-1); test: cell-based or functional assay
[39] = biological target: HIV-1 Env of isolate 93WR029 (pseudovirus) (HIV-1); test: cell-based or functional assay
[40] = biological target: JR-FL gp120 ΔV1/ΔV2 (HIV-1 JR-FL); test: ELISA, antigen-coated wells, mAb titrated; EC50 by nonlinear regression
[41] = biological target: WT JR-FL gp120 (HIV-1 JR-FL); test: as above

PGT-142 (4995_E20) (antibody), sequence (VH): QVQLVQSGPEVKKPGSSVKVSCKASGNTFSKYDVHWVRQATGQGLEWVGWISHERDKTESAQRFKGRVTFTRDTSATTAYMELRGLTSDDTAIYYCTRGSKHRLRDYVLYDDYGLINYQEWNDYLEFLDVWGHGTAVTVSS
PGT-142 (4995_E20) (antibody), sequence (VL): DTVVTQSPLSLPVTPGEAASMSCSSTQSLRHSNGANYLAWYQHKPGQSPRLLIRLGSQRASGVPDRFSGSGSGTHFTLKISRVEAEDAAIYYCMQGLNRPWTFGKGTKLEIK
PGT-143 (4980_N08) (antibody), sequence (VH): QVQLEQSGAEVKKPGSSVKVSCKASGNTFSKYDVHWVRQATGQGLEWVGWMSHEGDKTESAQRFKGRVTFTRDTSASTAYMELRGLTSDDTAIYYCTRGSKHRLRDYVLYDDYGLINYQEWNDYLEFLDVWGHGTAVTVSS
PGT-143 (4980_N08) (antibody), sequence (VL): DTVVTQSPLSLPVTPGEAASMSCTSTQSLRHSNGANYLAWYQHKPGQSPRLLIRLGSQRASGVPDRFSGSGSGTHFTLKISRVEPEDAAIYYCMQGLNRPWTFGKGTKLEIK
PGT-144 (4970_K22) (antibody), sequence (VH): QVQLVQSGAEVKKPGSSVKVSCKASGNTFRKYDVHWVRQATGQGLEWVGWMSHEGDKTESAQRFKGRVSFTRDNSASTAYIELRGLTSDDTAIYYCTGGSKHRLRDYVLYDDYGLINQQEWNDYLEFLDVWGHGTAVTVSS
PGT-144 (4970_K22) (antibody), sequence (VL): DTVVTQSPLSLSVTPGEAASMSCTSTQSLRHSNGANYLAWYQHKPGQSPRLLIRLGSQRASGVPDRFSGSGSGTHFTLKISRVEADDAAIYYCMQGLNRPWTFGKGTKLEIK
PGT-145 (4995_P16) (antibody), sequence (VH): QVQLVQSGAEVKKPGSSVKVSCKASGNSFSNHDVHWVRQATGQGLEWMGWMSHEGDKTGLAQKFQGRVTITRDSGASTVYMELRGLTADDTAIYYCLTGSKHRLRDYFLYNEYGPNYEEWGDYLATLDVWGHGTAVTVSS
PGT-145 (4995_P16) (antibody), sequence (VL): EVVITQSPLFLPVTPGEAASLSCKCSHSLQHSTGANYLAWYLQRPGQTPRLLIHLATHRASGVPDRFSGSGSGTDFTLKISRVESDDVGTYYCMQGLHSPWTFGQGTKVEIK

PGT-144 (4970_K22) (antibody)
IC50, pseudovirus neutralization [1]: > 50 µg/mL
IC50, pseudovirus neutralization [2]: > 50 µg/mL
IC50, pseudovirus neutralization [3]: > 50 µg/mL
IC50, pseudovirus neutralization [4]: 4.73 µg/mL
IC50, pseudovirus neutralization [5]: > 50 µg/mL
IC50, pseudovirus neutralization [6]: > 50 µg/mL
IC50, pseudovirus neutralization [7]: 20.6 µg/mL
IC50, pseudovirus neutralization [8]: 0.535 µg/mL
IC50, pseudovirus neutralization [9]: > 50 µg/mL
IC50, pseudovirus neutralization [10]: 2.4 µg/mL
IC50, pseudovirus neutralization [11]: > 50 µg/mL
IC50, pseudovirus neutralization [12]: 0.171 µg/mL
IC50, pseudovirus neutralization [13]: > 50 µg/mL
IC50, pseudovirus neutralization [14]: 5.64 µg/mL
IC50, pseudovirus neutralization [15]: > 50 µg/mL
IC50 [16]: > 50 µg/mL
IC50, pseudovirus neutralization [17]: 0.149 µg/mL
IC50, pseudovirus neutralization [18]: 0.029 µg/mL
IC50, pseudovirus neutralization [19]: 0.132 µg/mL
IC50, pseudovirus neutralization [20]: > 50 µg/mL
IC50, pseudovirus neutralization [21]: 0.712 µg/mL
IC50, pseudovirus neutralization [22]: 0.04 µg/mL
IC50, pseudovirus neutralization [23]: 0.332 µg/mL
IC50, pseudovirus neutralization [24]: > 50 µg/mL

PGT-142 (4995_E20) (antibody)
IC50, pseudovirus neutralization [1]: > 50 µg/mL
IC50, pseudovirus neutralization [2]: > 50 µg/mL
IC50, pseudovirus neutralization [3]: 3.15 µg/mL
IC50, pseudovirus neutralization [4]: 0.27 µg/mL
IC50, pseudovirus neutralization [5]: > 50 µg/mL
IC50, pseudovirus neutralization [6]: 0.486 µg/mL
IC50, pseudovirus neutralization [7]: 12.9 µg/mL
IC50, pseudovirus neutralization [8]: 0.066 µg/mL
IC50, pseudovirus neutralization [9]: > 50 µg/mL
IC50, pseudovirus neutralization [10]: 0.323 µg/mL
IC50, pseudovirus neutralization [11]: > 50 µg/mL
IC50, pseudovirus neutralization [12]: 0.001 µg/mL
IC50, pseudovirus neutralization [13]: > 50 µg/mL
IC50, pseudovirus neutralization [14]: 0.994 µg/mL
IC50, pseudovirus neutralization [15]: > 50 µg/mL
IC50 [16]: 0.383 µg/mL
IC50, pseudovirus neutralization [17]: 0.01 µg/mL
IC50, pseudovirus neutralization [18]: 0.012 µg/mL
IC50, pseudovirus neutralization [19]: 0.001 µg/mL
IC50, pseudovirus neutralization [20]: > 50 µg/mL
IC50, pseudovirus neutralization [21]: 0.076 µg/mL
IC50, pseudovirus neutralization [22]: 0.005 µg/mL
IC50, pseudovirus neutralization [23]: 0.001 µg/mL
IC50, pseudovirus neutralization [24]: > 50 µg/mL

PGT-145 (4995_P16) (antibody)
IC50, pseudovirus neutralization [1]: > 50 µg/mL
IC50, pseudovirus neutralization [2]: > 50 µg/mL
IC50, pseudovirus neutralization [3]: 0.079 µg/mL
IC50, pseudovirus neutralization [4]: 0.044 µg/mL
IC50, pseudovirus neutralization [5]: 0.006 µg/mL
IC50, pseudovirus neutralization [6]: 0.009 µg/mL
IC50, pseudovirus neutralization [7]: 13.6 µg/mL
IC50, pseudovirus neutralization [8]: 0.299 µg/mL
IC50, pseudovirus neutralization [9]: 0.915 µg/mL
IC50, pseudovirus neutralization [10]: 0.013 µg/mL
IC50, pseudovirus neutralization [11]: > 50 µg/mL
IC50, pseudovirus neutralization [12]: 0.005 µg/mL
IC50, pseudovirus neutralization [13]: > 50 µg/mL
IC50, pseudovirus neutralization [14]: 0.206 µg/mL
IC50, pseudovirus neutralization [15]: 9.66 µg/mL
IC50 [16]: 0.045 µg/mL
IC50, pseudovirus neutralization [17]: 0.002 µg/mL
IC50, pseudovirus neutralization [18]: 0.013 µg/mL
IC50, pseudovirus neutralization [19]: 0.002 µg/mL
IC50, pseudovirus neutralization [20]: > 50 µg/mL
IC50, pseudovirus neutralization [21]: 0.054 µg/mL
IC50, pseudovirus neutralization [22]: 0.018 µg/mL
IC50, pseudovirus neutralization [23]: 1.2 µg/mL
IC50, pseudovirus neutralization [24]: > 50 µg/mL

PGT-143 (4980_N08) (antibody)
IC50, pseudovirus neutralization [1]: > 50 µg/mL
IC50, pseudovirus neutralization [2]: > 50 µg/mL
IC50, pseudovirus neutralization [3]: 2.02 µg/mL
IC50, pseudovirus neutralization [4]: 0.219 µg/mL
IC50, pseudovirus neutralization [5]: > 50 µg/mL
IC50, pseudovirus neutralization [6]: 0.236 µg/mL
IC50, pseudovirus neutralization [7]: 12.3 µg/mL
IC50, pseudovirus neutralization [8]: 0.162 µg/mL
IC50, pseudovirus neutralization [9]: > 50 µg/mL
IC50, pseudovirus neutralization [10]: 0.377 µg/mL
IC50, pseudovirus neutralization [11]: > 50 µg/mL
IC50, pseudovirus neutralization [12]: 0.001 µg/mL
IC50, pseudovirus neutralization [13]: > 50 µg/mL
IC50, pseudovirus neutralization [14]: 1.56 µg/mL
IC50, pseudovirus neutralization [15]: > 50 µg/mL
IC50 [16]: 1.11 µg/mL
IC50, pseudovirus neutralization [17]: 0.007 µg/mL
IC50, pseudovirus neutralization [18]: 0.016 µg/mL
IC50, pseudovirus neutralization [19]: 0.002 µg/mL
IC50, pseudovirus neutralization [20]: > 50 µg/mL
IC50, pseudovirus neutralization [21]: 0.145 µg/mL
IC50, pseudovirus neutralization [22]: 0.01 µg/mL
IC50, pseudovirus neutralization [23]: 0.002 µg/mL
IC50, pseudovirus neutralization [24]: > 50 µg/mL

5343_B08 (PGT-135) (antibody)
IC50 (µg/mL), pseudovirus neutralization [1]: 0.057 µg/mL
IC50 (µg/mL), pseudovirus neutralization [25]: > 50 µg/mL
IC50 (µg/mL), pseudovirus neutralization [26]: > 50 µg/mL
IC50 (µg/mL), pseudovirus neutralization [2]: 0.023 µg/mL
IC50 (µg/mL), pseudovirus neutralization [3]: 21.8 µg/mL
IC50, pseudovirus neutralization [27]: 41.9 µg/mL
IC50 (µg/mL), pseudovirus neutralization [28]: > 50 µg/mL
IC50 (µg/mL), pseudovirus neutralization [4]: 0.03 µg/mL
IC50 (µg/mL), pseudovirus neutralization [5]: 8.03 µg/mL
IC50 (µg/mL), pseudovirus neutralization [6]: 0.329 µg/mL
IC50 (µg/mL), pseudovirus neutralization [8]: > 50 µg/mL
IC50 (µg/mL), pseudovirus neutralization [9]: > 50 µg/mL
IC50 (µg/mL), pseudovirus neutralization [10]: > 50 µg/mL
IC50 (µg/mL), pseudovirus neutralization [29]: > 50 µg/mL
IC50 (µg/mL), pseudovirus neutralization [30]: > 50 µg/mL
IC50 (µg/mL), pseudovirus neutralization [31]: > 50 µg/mL
IC50 (µg/mL), pseudovirus neutralization [32]: > 50 µg/mL
IC50 (µg/mL), pseudovirus neutralization [11]: > 50 µg/mL
IC50 (µg/mL), pseudovirus neutralization [12]: 0.014 µg/mL
IC50 (µg/mL), pseudovirus neutralization [13]: 0.142 µg/mL
IC50 (µg/mL), pseudovirus neutralization [14]: > 50 µg/mL
IC50 (µg/mL), pseudovirus neutralization [33]: 0.067 µg/mL
IC50 (µg/mL), pseudovirus neutralization [15]: 0.166 µg/mL
IC50 (µg/mL), pseudovirus neutralization [17]: 0.131 µg/mL
IC50 (µg/mL), pseudovirus neutralization [18]: > 50 µg/mL
IC50 (µg/mL), pseudovirus neutralization [19]: 0.011 µg/mL
IC50 (µg/mL), pseudovirus neutralization [34]: 3.67 µg/mL
IC50 (µg/mL), pseudovirus neutralization [35]: > 50 µg/mL
IC50 (µg/mL), pseudovirus neutralization [20]: > 50 µg/mL
IC50 (µg/mL), pseudovirus neutralization [21]: > 50 µg/mL
IC50, pseudovirus neutralization [36]: 0.157 µg/mL
IC50 (µg/mL), pseudovirus neutralization [22]: > 50 µg/mL
IC50 (µg/mL), pseudovirus neutralization [37]: > 50 µg/mL
IC50 (µg/mL), pseudovirus neutralization [38]: > 50 µg/mL
IC50 (µg/mL), pseudovirus neutralization [39]: > 50 µg/mL
IC50 (µg/mL), pseudovirus neutralization [23]: > 50 µg/mL
IC50 (µg/mL), pseudovirus neutralization [24]: > 50 µg/mL
EC50 [40]: 0.1 µg/mL
EC50 [41]: 0.1 µg/mL
